Residue numbers refer to the chain shown, from its start.

Data on 17 molecules can be found in patent US20260116991A1.

The labels stand for the following.
B1: hAb003LH1L1 (antibody, human IgG1, V domains shown)
VH: EVQLVQSGAEVKKPGSSVKVSCKASGYTFSDYEMHWVRQAPGQGLEWMGTIDPETGNTAYTQKFMDRVTITADKSTSTAYMELSSLRSEDTAVYYCTRGYSFTYWGQGTLVTVSS
VL: DIVMTQTPLSLPVTPGEPASISCRSSQNIVHSNGNTYLQWYLQKPGQSPQLLIFKVSNRFSGVPDRFSGSGSGTDFTLKISRVEAEDVGVYYCFQGSHVPFTFGQGTKLEIK
B2: hAb006LH1L1b (antibody, human IgG1, V domains shown)
VH: B1 VH with M34I, T50A, E54K, T61N, D66G, G99Y, Y100F, T103A
VL: B1 VL with N28T, I29F, G34A, F54Y, F101Y
B3: hAb006LH2L1a (antibody, human IgG1, V domains shown)
VH: B1 VH with S30T, M34I, T50A, E54K, T61N, D66G, G99Y, Y100F, T103A
VL: B1 VL with N28T, I29F, N33D, F54Y, F101Y
B4: hAb006LH1L1a (antibody, human IgG1, V domains shown)
VH: B1 VH with M34I, T50A, E54K, T61N, D66G, G99Y, Y100F, T103A
VL: B1 VL with N28T, I29F, N33D, F54Y, F101Y
B5: hAb003LH1L1b (antibody, human IgG1, V domains shown)
VH: B1 VH
VL: B1 VL with G34R
B6: hAb006LH2L1 (antibody, human IgG1, V domains shown)
VH: B1 VH with S30T, M34I, T50A, E54K, T61N, D66G, G99Y, Y100F, T103A
VL: B1 VL with N28T, I29F, F54Y, F101Y
B7: hAb005LH2L1b (antibody, human IgG1, V domains shown)
VH: EVQLVQSGAEVKKPGASVKVSCKASGYTFTDYEMHWVRQAPGQGLEWMGAIDPETGNTAYIQKFKGRVTLTTDKSTSTAYMELRSLRSDDTAVYYCTRFYSYSHWGQGTTVTVSS
VL: DIVMTQTPLSLPVTPGEPASISCRSSQSLVHSNRNTYLHWYLQKPGQSPQLLIYKVSNRFSGVPDRFSGSGSGTDFTLKISRVEAEDVGVYYCSQNTHVPPTFGGGTKVEIK
B8: GC33 IgG (antibody, V domains shown)
VH: QVQLVQSGAEVKKPGASVKVSCKASGYTFTDYEMHWVRQAPGQGLEWMGALDPKTGDTAYSQKFKGRVTLTADKSTSTAYMELSSLTSEDTAVYYCTRFYSYTYWGQGTLVTVSS
VL: DVVMTQSPLSLPVTPGEPASISCRSSQSLVHSNRNTYLHWYLQKPGQSPQLLIYKVSNRFSGVPDRFSGSGSGTDFTLKISRVEAEDVGVYYCSQNTHVPPTFGQGTKLEIKR
B9: hAb001H2L1a (antibody, human IgG1, V domains shown)
VH: EVQLVESGGGLVQPGGSLRLSCAASGFSFNTNAMNWVRQAPGKGLEWVGRIRSKSNNYATYYADSVKDRFTISRDDSKSSLYLQMNSLKTEDTAVYYCVRDGYYVLFAYWGQGTLVTVSS
VL: B1 VL with S25F, N28S, H31N, N33D, Q39E, Y41F, F54Y
B10: hAb006LH3L1e (antibody, human IgG1, V domains shown)
VH: B1 VH with S30T, M34I, T50A, E54K, T61N, D66G, I70L, G99Y, Y100F, T103A
VL: B1 VL with N28T, I29F, G34V, F54Y, F101Y
B11: hAb001H1aL1a (antibody, human IgG1, V domains shown)
VH: B9 VH with D68G, S79N
VL: B1 VL with S25F, N28S, H31N, N33D, Q39E, Y41F, F54Y
B12: hAb001H2L1 (antibody, human IgG1, V domains shown)
VH: B9 VH
VL: B1 VL with S25F, N28S, H31N, Q39E, Y41F, F54Y
B13: hAb006LH3L1d (antibody, human IgG1, V domains shown)
VH: B1 VH with S30T, M34I, T50A, E54K, T61N, D66G, I70L, G99Y, Y100F, T103A
VL: B1 VL with N28T, I29F, G34S, F54Y, F101Y
B14: hAb007LH1L1d (antibody, human IgG1, V domains shown)
VH: B1 VH with T61N, M65K, D66G, G99P, F102L
VL: B1 VL with N28S, I29F, G34S, N35D, F54Y, F101Y
B15: hAb001H1L1a (antibody, human IgG1, V domains shown)
VH: B9 VH with S79N
VL: B1 VL with S25F, N28S, H31N, N33D, Q39E, Y41F, F54Y
B16: hAb001H1L1 (antibody, human IgG1, V domains shown)
VH: B9 VH with S79N
VL: B1 VL with S25F, N28S, H31N, Q39E, Y41F, F54Y
B17: hAb007LH1L1e (antibody, human IgG1, V domains shown)
VH: B1 VH with T61N, M65K, D66G, G99P, F102L
VL: B1 VL with N28S, I29F, G34V, N35D, F54Y, F101Y

The first experiment deals with monkey GPC3-His protein (monkey). Put plainly: ELISA, monkey GPC3-His coated; antibody 0.11 nM.
B1 came in with an OD450 nm of 2.31.
B2 registered an OD450 nm of 2.13.
B3 yielded an OD450 nm of 0.137.
Consider B4, for which the OD450 nm is 0.227.
Molecule B5 came in with an OD450 nm of 2.18.
B6 gave an OD450 nm of 2.01.
Take B7: the OD450 nm was 1.17.

The next experiment has the same target. Put plainly: ELISA, monkey GPC3-His coated; antibody 66.66 nM.
B1 displayed an OD450 nm of 2.58.
On to B2, for which the OD450 nm was 2.77.
On to B3, for which the OD450 nm worked out at 2.06.
In turn, B4 showed an OD450 nm of 2.08.
On to B5, for which the OD450 nm worked out at 2.55.
Turning to B6, the OD450 nm was found to be 2.39.
Molecule B7 came in with an OD450 nm of 1.23.

A further experiment has the same target. As to the kind of experiment: ELISA, monkey GPC3-His coated; antibody 13.33 nM.
B1 registered an OD450 nm of 2.62.
B2 came in with an OD450 nm of 2.5.
In the case of B3, the OD450 nm stood at 1.84.
As to B4, the OD450 nm came out at 1.82.
Molecule B5 gave an OD450 nm of 2.64.
As for B6, the OD450 nm is 2.23.
As for B7, the OD450 nm stood at 1.24.

The target in another experiment is monkey GPC3 on HEK293T-monkey GPC3 cells (monkey). Put plainly: FACS on HEK293T-monkey GPC3 cells.
In the case of B8, the EC50 was found to be 5.96 nM and the Max MFI was found to be 87000 MFI.
In the case of B9, the concentration giving a half-maximal response (EC50) was 2.03 nM and the Max MFI came out at 26900 MFI.
B10 showed an EC50 of 6.54 nM and a Max MFI of 82900 MFI.
As for B11, the EC50 came out at 1.68 nM and the Max MFI came to 27200 MFI.
In turn, B12 had an EC50 of 1.08 nM and a Max MFI of 33300 MFI.
As to B13, the concentration giving a half-maximal response (EC50) was determined as 6.16 nM and the Max MFI is 84800 MFI.
For B14, the EC50 is 13.6 nM and the Max MFI came out at 80400 MFI.
For B15 the same measures were 1.87 nM and 24900 MFI.
Turning to B16, the EC50 turned out to be 1.33 nM and the Max MFI turned out to be 33500 MFI.
In turn, B17 returned an EC50 of 19.9 nM and a Max MFI of 59700 MFI.

A further experiment deals with monkey GPC3-His protein (monkey). Put plainly: ELISA, monkey GPC3-His coated; antibody 0.53 nM.
B1 registered an OD450 nm of 2.65.
Molecule B2 showed an OD450 nm of 2.49.
The molecule B3 had an OD450 nm of 0.549.
Regarding B4, the OD450 nm worked out at 0.917.
Molecule B5 came in with an OD450 nm of 2.46.
With B6, the OD450 nm was 2.38.
Consider B7, for which the OD450 nm was 1.25.

The next experiment shares this target. Put plainly: ELISA, monkey GPC3-His coated; antibody 0.02 nM.
As for B1, the OD450 nm came to 1.34.
As to B2, the OD450 nm was found to be 0.877.
B3: the OD450 nm was 0.065.
In the case of B4, the OD450 nm was found to be 0.078.
B5 returned an OD450 nm of 1.22.
Consider B6, for which the OD450 nm was 1.06.
Molecule B7 registered an OD450 nm of 0.687.

The target is the same in a further experiment. Put plainly: ELISA, monkey GPC3-His coated; antibody 2.67 nM.
B1 gave an OD450 nm of 2.58.
With B2, the OD450 nm was determined as 2.75.
On to B3, for which the OD450 nm is 1.39.
For the molecule B4, the OD450 nm worked out at 1.63.
With B5, the OD450 nm was determined as 2.58.
Still for that read-out and setting: with B6 the figure was 2.46.
The same measure, in the same setting: with B7 the figure was 1.32.

A further experiment has the same target. As to the kind of experiment: ELISA, monkey GPC3-His coated; antibody 0.004 nM.
B1 registered an OD450 nm of 0.467.
B2 had an OD450 nm of 0.309.
On to B3, for which the OD450 nm amounted to 0.055.
For B4, the OD450 nm came out at 0.058.
In turn, B5 gave an OD450 nm of 0.418.
As for B6, the OD450 nm amounted to 0.358.
B7 came in with an OD450 nm of 0.232.

A further experiment shares this target. Put plainly: ELISA, monkey GPC3-His coated; antibody 0.0008 nM.
Molecule B1 came in with an OD450 nm of 0.188.
In turn, B2 showed an OD450 nm of 0.111.
As to B3, the OD450 nm came out at 0.047.
As to B4, the OD450 nm worked out at 0.05.
B5 displayed an OD450 nm of 0.192.
B6 had an OD450 nm of 0.129.
The same measure, in the same setting: for B7 the value was 0.09.
